Calcium mobilization (Fluo-4 imaging) in AKHR-expressing S2 cells, dose-response to AKH; no response with an empty vector and Kd data for two substances are collected here from article PMC12915204, “A Cold Stress‐Activated Endocrine Sentinel Chemical Hormone Promotes Insect Survival via Mitochondrial Adaptations Through the Adipokinetic Hormone Receptor” (Advanced Science, 2025).

Assay [1] deals with adipokinetic hormone receptor (AKHR) of Monochamus alternatus, overexpressed in Drosophila S2 cells (Monochamus alternatus).
For assay [2], the system named is T1, adipokinetic hormone receptor (AKHR).
T1 construct: GFP-tagged AKHR in S2 cell lysate (AKHR-GFP fusion protein)
In words: Microscale thermophoresis with AKHR-GFP in S2 cell lysate; supported by calcium imaging in AKHR-expressing S2 cells ([…] asc-C9). It counts as binding, Monochamus alternatus.

As to “M. alternatus AKH peptide (adipokinetic hormone)”, the calcium mobilization (Fluo-4 imaging) in AKHR-expressing S2 cells, dose-response to AKH; no response with an empty vector in assay [1] was 30 nM. asc-C9: the Kd in assay [2] came out at 272 µM.
